Measured values taken from paper PMC2996326, “LaeA Control of Velvet Family Regulatory Proteins for Light-Dependent Development and Fungal Cell-Type Specificity” (PLoS Genetics, 2010).

Biological target: the molecule itself
Assay: not stated; VelB heterologously expressed in Escherichia coli; data not shown

B1: VelB expressed in Escherichia coli (natural protein, Aspergillus nidulans, UniProt C8VTS4 1-369, looked up)
chain: MYAVEDRAHSGHHPPPLSMDRIPPPSTMYPSSAGPSAMVSPAGQPEPESLSTVHDGRIWSLQVVQQPIRARMCGFGDKDRRPITPPPCIRLIVKDAQTQKEVDINSLDSSFYVVMADLWNADGTHEVNLVKHSATSPSISTAMSSSYPPPPHPTSSDYPASYQTNPYGQPVGQPVGQPVGYAGVGNYYGGSTQLQYQNAYPNPQAQYYQPMYGGMAQPQMPAAQPVTPGPGGMFTRNLIGCLSASAYRLYDTEDKIGVWFVLQDLSVRTEGIFRLKFSFVNVGKSVSDLPQSDIAEVINKGTAPILASTFSEPFQVFSAKKFPGVIESTPLSKVFANQGIKIPIRKDGVKGQGSRGRHSDEDDGLDNEY
notes: VelB of Aspergillus nidulans, heterologously expressed; construct not described; neither the construct, its tags nor its purification are described; source: heterologous expression in Escherichia coli
stoichiometry N: 2
